# Reference: patent US10568950B1, “Peptides, combination of peptides and scaffolds for use in immunotherapeutic treatment of various cancers” (Immatics Biotechnologies GmbH, priority 2015, dated 2020)
# Molecular target: HLA-A*02 (Homo sapiens, UniProt P04439, D140Y/D185E/D98H/E176V/E277Q/G131W/G231S/I119V/I121R/I166T/I218V/N151K/N90K/P208A/P217A/Q86G/Q94H/R138H/R169H)
# Assay: MHC binding assay: UV-ligand exchange, beta2m ELISA (peptide exchange yield)
# Details: binding to HLA-A*02, β2m ELISA
# Description: Candidate peptides for T cell based therapies according to the present invention were further tested for their MHC binding capacity (affinity). The individual peptide-MHC complexes were produced by UV-ligand exchange, where a UV-sensitive peptide is cleaved upon UV-irradiation, and exchanged with the peptide of interest as analyzed. Only peptide candidates that can effectively bind and stabilize the peptide-receptive MHC molecules prevent dissociation of the MHC complexes. To determine the yield of the exchange reaction, an ELISA was performed based on the detection of the light chain (β2m) of stabilized MHC complexes. The assay was performed as generally described in Rodenko et al. (Rodenko et al., 2006).
# 96 well MAXISorp plates (NUNC) were coated over night with 2 ug/ml streptavidin in PBS at room temperature, washed 4× and blocked for 1 h at 37° C. in 2% BSA containing blocking buffer. […] Peptide-MHC monomers of the UV-exchange reaction were diluted 100 fold in blocking buffer. Samples were incubated for 1 h at 37° C., washed four times, incubated with 2 ug/ml HRP conjugated anti-βm for 1 h at 37° C., washed again and detected with TMB solution that is stopped with […]. Absorption was measured at 450 nm. Candidate peptides that show a high exchange yield (preferably higher than 50%, most preferred higher than 75%) are generally preferred for a generation and production of antibodies or fragments thereof, and/or T cell receptors or fragments thereof, as they show sufficient avidity to the MHC molecules and prevent dissociation of the MHC complexes.
row,"Peptide exchange (MHC class I binding score, peptide exchange yield)",Substance
1,++ (20%-49% = ++),10 (KTLDVFNIIL; listed as Homo sapiens) [compound 10]
2,+++ (50%-75% = +++),69 (GIYDGILHSI; listed as Homo sapiens) [compound 69]
3,+++ (50%-75% = +++),337 (KVLGKIEKV; listed as Homo sapiens) [compound 337]
4,++ (20%-49% = ++),14 (LLDHLSFINKI; listed as Homo sapiens) [compound 14]
5,+++ (50%-75% = +++),80 (TLDEYLTYL; listed as Homo sapiens) [compound 80]
6,+++ (50%-75% = +++),87 (YLTEVFLHVV; listed as Homo sapiens) [compound 87]
7,++ (20%-49% = ++),60 (FLIDTSASM; listed as Homo sapiens) [compound 60]
8,+++ (50%-75% = +++),327 (SIGDIFLKY; listed as Homo sapiens) [compound 327]
9,+++ (50%-75% = +++),78 (LLWGHPRVA; listed as Homo sapiens) [compound 78]
10,++ (20%-49% = ++),64 (GLSSSSYEL; listed as Homo sapiens) [compound 64]
11,+++ (50%-75% = +++),77 (IVLSTIASV; listed as Homo sapiens) [compound 77]
12,++ (20%-49% = ++),328 (SVDSAPAAV; listed as Homo sapiens) [compound 328]
13,+++ (50%-75% = +++),47 (GLYQAQVNL; listed as Homo sapiens) [compound 47]
14,+++ (50%-75% = +++),51 (LLLDGDFTL; listed as Homo sapiens) [compound 51]
15,+++ (50%-75% = +++),76 (ILLDESNFNHFL; listed as Homo sapiens) [compound 76]
16,++ (20%-49% = ++),74 (ILDETLENV; listed as Homo sapiens) [compound 74]
17,++ (20%-49% = ++),55 (IASAIVNEL; listed as Homo sapiens) [compound 55]
18,+++ (50%-75% = +++),28 (TLYSMDLMKV; listed as Homo sapiens) [compound 28]
19,+++ (50%-75% = +++),88 (ILLNTEDLASL; listed as Homo sapiens) [compound 88]
20,+++ (50%-75% = +++),33 (LLLPLLPPLSPSLG; listed as Homo sapiens) [compound 33]
21,+++ (50%-75% = +++),45 (VLGPTPELV; listed as Homo sapiens) [compound 45]

row,"Peptide exchange (MHC class I binding score, peptide exchange yield)",Substance
1,+++ (50%-75% = +++),321 (SLWFKPEEL; listed as Homo sapiens) [compound 321]
2,+++ (50%-75% = +++),46 (SLAKHGIVAL; listed as Homo sapiens) [compound 46]
3,+++ (50%-75% = +++),3 (TLLGKQVTL; listed as Homo sapiens) [compound 3]
4,++++ (>= 75% = ++++),22 (MLSDLTLQL; listed as Homo sapiens) [compound 22]
5,++++ (>= 75% = ++++),79 (SLVPLQILL; listed as Homo sapiens) [compound 79]
6,++ (20%-49% = ++),48 (TLDHKPVTV; listed as Homo sapiens) [compound 48]
7,+ (<20% = +),90 (GAVAEEVLSSI; listed as Homo sapiens) [compound 90]
8,++++ (>= 75% = ++++),324 (AIFDFCPSV; listed as Homo sapiens) [compound 324]
9,+++ (50%-75% = +++),37 (ALINDILGELVKL; listed as Homo sapiens) [compound 37]
10,++ (20%-49% = ++),50 (EYALLYHTL; listed as Homo sapiens) [compound 50]
11,++ (20%-49% = ++),16 (HLYNNEEQV; listed as Homo sapiens) [compound 16]
12,++++ (>= 75% = ++++),21 (SLYHRVLLY; listed as Homo sapiens) [compound 21]
13,++ (20%-49% = ++),329 (FAWEPSFRDQV; listed as Homo sapiens) [compound 329]
14,+++ (50%-75% = +++),71 (GLITVDIAL; listed as Homo sapiens) [compound 71]
15,+++ (50%-75% = +++),18 (YVLNEEDLQKV; listed as Homo sapiens) [compound 18]
16,++ (20%-49% = ++),335 (VLLAAGPSAA; listed as Homo sapiens) [compound 335]
17,++ (20%-49% = ++),340 (SVAKTILKR; listed as Homo sapiens) [compound 340]
18,+++ (50%-75% = +++),32 (ILADEAFFSV; listed as Homo sapiens) [compound 32]
19,+++ (50%-75% = +++),5 (SLFGQEVYC; listed as Homo sapiens) [compound 5]
20,+ (<20% = +),63 (TLSSERDFAL; listed as Homo sapiens) [compound 63]
21,+++ (50%-75% = +++),29 (TLCNKTFTA; listed as Homo sapiens) [compound 29]

row,"Peptide exchange (MHC class I binding score, peptide exchange yield)",Substance
1,+++ (50%-75% = +++),24 (FLWNGEDSAL; listed as Homo sapiens) [compound 24]
2,+++ (50%-75% = +++),53 (SLLSHVIVA; listed as Homo sapiens) [compound 53]
3,++ (20%-49% = ++),325 (RLLPKVQEV; listed as Homo sapiens) [compound 325]
4,+++ (50%-75% = +++),13 (VLRDNIQGI; listed as Homo sapiens) [compound 13]
5,+++ (50%-75% = +++),52 (ELLSSIFFL; listed as Homo sapiens) [compound 52]
6,++ (20%-49% = ++),61 (HLPDFVKQL; listed as Homo sapiens) [compound 61]
7,+++ (50%-75% = +++),93 (SLLTQPIFL; listed as Homo sapiens) [compound 93]
8,+++ (50%-75% = +++),330 (FLWPKEVEL; listed as Homo sapiens) [compound 330]
9,+++ (50%-75% = +++),323 (ILSVVNSQL; listed as Homo sapiens) [compound 323]
10,+ (<20% = +),23 (AQTVVVIKA; listed as Homo sapiens) [compound 23]
11,+++ (50%-75% = +++),333 (GTFLEGVAK; listed as Homo sapiens) [compound 333]
12,+++ (50%-75% = +++),75 (ILDNVKNLL; listed as Homo sapiens) [compound 75]
13,++ (20%-49% = ++),11 (GVLKVFLENV; listed as Homo sapiens) [compound 11]
14,++ (20%-49% = ++),81 (VLFLGKLLV; listed as Homo sapiens) [compound 81]
15,+++ (50%-75% = +++),38 (KMQEDLVTL; listed as Homo sapiens) [compound 38]
16,+++ (50%-75% = +++),49 (LLDESKLTL; listed as Homo sapiens) [compound 49]
17,+++ (50%-75% = +++),84 (FLEEEITRV; listed as Homo sapiens) [compound 84]
18,+++ (50%-75% = +++),19 (TLLPTVLTL; listed as Homo sapiens) [compound 19]
19,+++ (50%-75% = +++),54 (FINPKGNWLL; listed as Homo sapiens) [compound 54]
20,++ (20%-49% = ++),35 (YVLPKLYVKL; listed as Homo sapiens) [compound 35]
